Results reported in the supplement of paper PMC7125110.
± gives the standard error. Variants at the floor of the assay were thinned out.

B1: glmS ribozyme (parent)
chain: AUAAAAGCGCCAGAACUACAGAAAUGUAGUUGACGAGGAGGAGGUUUAUCGAAUUUUCGGCGGAUGCCUCCAAA

What was measured:
Conditions in all cases: with glucosamine-6-phosphate
[1] = variants of: B1; test: self-cleavage kobs at 160 uM GlcN6P; higher = faster cleavage; RNA array
Method in brief: (§1)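 Barcoded ribozyme variants were transcribed in situ on sequenced MiSeq chips by E. coli RNA polymerase. At 37 °C, a hybridised Cy3 probe tracked them while glucosamine-6-phosphate (40 μM to 10 mM) in HEPES/KCl/Mg(OAc)2 buffer flowed in and tiles were imaged over ~14 h. Per-tile medians of signals normalised to baseline and to non-cleaving reference variants were fit to one- or two-exponential decays, giving kobs. kcat and KM came from weighted Michaelis–Menten fits across concentrations.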

[2] = variants of: B1; test: self-cleavage kobs at 2500 uM GlcN6P; higher = faster cleavage; RNA array
Method in brief: as §1

[3] = variants of: B1; test: self-cleavage kobs at 10000 uM GlcN6P; higher = faster cleavage; RNA array
Method in brief: as §1

[4] = variants of: B1; test: self-cleavage kobs at 640 uM GlcN6P; higher = faster cleavage; RNA array
Method in brief: as §1

Variant	self-cleavage kobs at 160 uM GlcN6P [1] [s⁻¹]	self-cleavage kobs at 2500 uM GlcN6P [2] [s⁻¹]	self-cleavage kobs at 10000 uM GlcN6P [3] [s⁻¹]	self-cleavage kobs at 640 uM GlcN6P [4] [s⁻¹]
U57G G62C A64U	< 1e-05	< 1e-05	< 1e-05	
U56C U57G C58A	0.00183 ± 0.0009			
A6G C11A G59U G60C				< 1e-05
C58G U69A	5.46e-05 ± 2.7e-05			0.000406 ± 9.6e-05
G60A C61U	< 1e-05	< 1e-05	< 1e-05	< 1e-05
A6G U47G C61A A64U				< 1e-05
A6G G40A C67U		< 1e-05		< 1e-05
G60U C68U	< 1e-05		< 1e-05	
G51C G59A	< 1e-05	< 1e-05		< 1e-05
A6C A39U G41C A52U		< 1e-05		< 1e-05
C58U C68G	4.79e-05 ± 1.6e-05	8.11e-05 ± 2e-05		0.000137 ± 2.7e-05
A6C U30A C67G				< 1e-05
U57G G63C	< 1e-05	< 1e-05		< 1e-05
A53C U56A G59C G63U	< 1e-05	< 1e-05		< 1e-05
A6G A14G A33U				< 1e-05
U55C C61U G63U	< 1e-05	< 1e-05		< 1e-05
A6G G43A C68A				< 1e-05
U2A				0.0236 ± 0.0098
A6U A15G G62U U69G				0.000197 ± 5.9e-05
A6U C10U G32C				< 1e-05

Variant	self-cleavage kobs at 160 uM GlcN6P [1] [s⁻¹]	self-cleavage kobs at 2500 uM GlcN6P [2] [s⁻¹]	self-cleavage kobs at 10000 uM GlcN6P [3] [s⁻¹]	self-cleavage kobs at 640 uM GlcN6P [4] [s⁻¹]
A53U G59U C61U G66U	< 1e-05	< 1e-05		
G62C U65G	< 1e-05			< 1e-05
A6G C11U G51U				< 1e-05
U57A G60A	< 1e-05			
A6G G7U U31C A36C		< 1e-05		< 1e-05
A6U A15U G40U G43C				< 1e-05
A6C U45C G51C U65G C70G		< 1e-05		< 1e-05
C58U G63A	< 1e-05		< 1e-05	
U2C G32U G44A U47G		< 1e-05		< 1e-05
A6U C16U U54A		0.000121 ± 3e-05		4.1e-05 ± 1.3e-05
C61G G62A C67U C68A	0.000136 ± 2.6e-05	0.000107 ± 2.2e-05		4.43e-05 ± 1.5e-05
G59U C67U C68U U69C	4.87e-05 ± 2.4e-05			
A6G A42C C58U		< 1e-05		< 1e-05
A6C G13A G38A C58U				< 1e-05
A6G G9U C58A		< 1e-05	< 1e-05	< 1e-05
A6U A36C G38U U56C C67G C68G		0.000145 ± 4.4e-05		0.000412 ± 0.0001
A6C A42C C50A U54G G59C C61U				< 1e-05
A6G A36G G41A			< 1e-05	< 1e-05
A6G C61G C71G				7.45e-05 ± 2.4e-05
A6C A53U C58U		< 1e-05		< 1e-05

Variant	self-cleavage kobs at 160 uM GlcN6P [1] [s⁻¹]	self-cleavage kobs at 2500 uM GlcN6P [2] [s⁻¹]	self-cleavage kobs at 10000 uM GlcN6P [3] [s⁻¹]	self-cleavage kobs at 640 uM GlcN6P [4] [s⁻¹]
G51C U56C	< 1e-05	< 1e-05	< 1e-05	< 1e-05
A6U A12G G59C C67A				< 1e-05
A6U A15G C19A A33C C68G		< 1e-05		< 1e-05
A4C G32U U47G		0.000118 ± 3.5e-05		8.66e-05 ± 2.2e-05
A6C A33G U46C C61G		< 1e-05		< 1e-05
A52C U65A	< 1e-05	< 1e-05	< 1e-05	< 1e-05
A6G G37U U47G C50G C58G C67A				7e-05 ± 2.9e-05
A6G G35U C50U				< 1e-05
U57C G62A	< 1e-05		< 1e-05	
A6G C58U U69A				0.000521 ± 0.00019
U55A A64G C71A	0.000178 ± 4.2e-05			0.000572 ± 0.00013
A6C G7A G29A C71U		< 1e-05		< 1e-05
A6C U31C G62A				< 1e-05
G60C G63A	< 1e-05	< 1e-05	< 1e-05	< 1e-05
U54C U56A G59C U65A	< 1e-05	< 1e-05		
A6G A14U C16G U56A				< 1e-05
G60A C61U G63A	< 1e-05	< 1e-05		
G60A C68G	8.43e-05 ± 3.9e-05	6.95e-05 ± 2.5e-05		7.21e-05 ± 1.6e-05
A6G A39U C70A				< 1e-05
